Source: patent US20190065668A1 (published 2019)
Square brackets hold non-standard residues; d marks the D form. * marks the point of attachment. Sta = CC(C)C[C@H](N)[C@@H](O)CC(=O)O; NHPhenethyl = c1ccc(CCN*)cc1; Cbz = O=C(OCc1ccccc1)*

Tests used:
[1] = target: plasmepsin V in P. falciparum parasites (endogenous enzyme in trophozoites expressing PfEMP3-GFP) (Plasmodium falciparum, UniProt Q8I6Z5 1-590); assay: cell-based or functional assay
[2] = target: recombinant P. falciparum plasmepsin V (residues N80-R528) (Plasmodium falciparum, UniProt Q8I6Z5 80-528); assay: cell-based or functional assay
Sequence of recombinant P. falciparum plasmepsin V (residues N80-R528) (Q8I6Z5 80-528): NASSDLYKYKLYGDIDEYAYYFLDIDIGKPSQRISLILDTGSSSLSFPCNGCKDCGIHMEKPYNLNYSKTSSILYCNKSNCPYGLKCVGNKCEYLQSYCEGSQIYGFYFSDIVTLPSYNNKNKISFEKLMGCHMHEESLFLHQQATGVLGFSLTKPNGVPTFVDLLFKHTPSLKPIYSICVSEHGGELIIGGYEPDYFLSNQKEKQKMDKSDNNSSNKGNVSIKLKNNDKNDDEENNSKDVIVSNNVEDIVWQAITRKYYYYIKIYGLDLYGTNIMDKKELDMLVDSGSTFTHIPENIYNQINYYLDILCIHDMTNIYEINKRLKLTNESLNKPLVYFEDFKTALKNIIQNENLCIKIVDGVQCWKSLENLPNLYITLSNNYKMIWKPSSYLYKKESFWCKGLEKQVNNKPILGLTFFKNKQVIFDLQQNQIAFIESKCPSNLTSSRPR

Sequence of plasmepsin V in P. falciparum parasites (endogenous enzyme in trophozoites expressing PfEMP3-GFP) (Q8I6Z5 whole entry, the tested form may be a part): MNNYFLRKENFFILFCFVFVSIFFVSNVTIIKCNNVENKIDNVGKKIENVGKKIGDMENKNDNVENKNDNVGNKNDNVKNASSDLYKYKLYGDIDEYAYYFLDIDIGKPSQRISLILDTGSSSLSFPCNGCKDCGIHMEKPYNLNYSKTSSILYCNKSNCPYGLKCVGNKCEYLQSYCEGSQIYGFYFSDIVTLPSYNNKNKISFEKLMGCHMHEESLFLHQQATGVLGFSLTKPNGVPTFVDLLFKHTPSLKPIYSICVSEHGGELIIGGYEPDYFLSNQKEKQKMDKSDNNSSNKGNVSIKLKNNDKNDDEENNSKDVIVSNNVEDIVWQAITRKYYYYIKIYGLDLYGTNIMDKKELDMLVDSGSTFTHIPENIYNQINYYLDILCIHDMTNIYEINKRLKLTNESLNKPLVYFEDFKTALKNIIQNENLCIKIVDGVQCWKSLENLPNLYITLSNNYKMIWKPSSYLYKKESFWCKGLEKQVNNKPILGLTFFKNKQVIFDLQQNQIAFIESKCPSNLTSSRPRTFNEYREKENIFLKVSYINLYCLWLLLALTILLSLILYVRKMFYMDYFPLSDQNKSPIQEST

B1: WEHI-842, Cbz-Cav(NH2)-Val-Sta-NH(CH2)2Ph.TFA (peptide)
peptide: Cbz-X-Val-[Sta]-NHPhenethyl
modifications: not fully specified (residue 1); printed as Cbz-Cav(NH2)-Val-Sta-NH(CH2)2Ph; also: TFA salt
inhibition of PEXEL processing of PfEMP3-GFP in parasites, immunoblot, fold against WEHI-916 [1]: 10 fold
inhibition of PfEMP3-GFP PEXEL cleavage in parasites, radiolabelling and densitometry, fold against WEHI-916 [1]: 10 fold
IC50, inhibition of cleavage of the fluorogenic KAHRP PEXEL peptide [2]: 0.79 nM
